Paper PMC10352137, “Readout of histone methylation by Trim24 locally restricts chromatin opening by p53” (Nature Structural & Molecular Biology, 2023)

Molecular target: T1, Flag-tagged TRIM24 N-terminal domain (amino acids 1-473) (mouse, UniProt Q64127 1-473)
T1 construct: TRIM24, mouse, N-terminal domain, amino acids 1-473; the recombinant constructs are numbered to residue 1051; also called amino-terminal region of the Trim24 protein; not shown: Flag, N-terminal, kept
T1 sequence (looked up): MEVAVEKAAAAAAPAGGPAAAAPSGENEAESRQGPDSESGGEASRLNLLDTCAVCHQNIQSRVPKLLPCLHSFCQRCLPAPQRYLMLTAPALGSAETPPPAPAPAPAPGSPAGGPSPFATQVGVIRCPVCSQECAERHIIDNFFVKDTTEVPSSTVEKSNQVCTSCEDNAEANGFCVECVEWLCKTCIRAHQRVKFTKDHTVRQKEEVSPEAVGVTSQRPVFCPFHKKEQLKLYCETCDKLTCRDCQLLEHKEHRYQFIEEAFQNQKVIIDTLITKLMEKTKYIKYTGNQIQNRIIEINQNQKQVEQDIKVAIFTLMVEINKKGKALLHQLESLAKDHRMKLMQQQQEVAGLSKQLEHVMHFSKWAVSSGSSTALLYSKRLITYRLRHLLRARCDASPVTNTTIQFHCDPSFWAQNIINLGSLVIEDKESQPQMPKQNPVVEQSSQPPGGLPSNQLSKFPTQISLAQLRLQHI
Experiment: pull-down; Flag-tagged TRIM24 domains (0.25 nmol) mixed with Strep-tagged p53 in equimolar ratios, anti-Flag or Strep-Tactin beads, 2 h at 4 °C, 50 mM HEPES pH 8.0, 150 mM NaCl; stained gel
Settings: both partners purified

B1: Strep-tagged mouse full-length p53 (natural protein, UniProt P02340 1-390, looked up)
chain: MTAMEESQSDISLELPLSQETFSGLWKLLPPEDILPSPHCMDDLLLPQDVEEFFEGPSEALRVSGAPAAQDPVTETPGPVAPAPATPWPLSSFVPSQKTYQGNYGFHLGFLQSGTAKSVMCTYSPPLNKLFCQLAKTCPVQLWVSATPPAGSRVRAMAIYKKSQHMTEVVRRCPHHERCSDGDGLAPPQHLIRVEGNLYPEYLEDRQTFRHSVVVPYEPPEAGSEYTTIHYKYMCNSSCMGGMNRRPILTIITLEDSSGNLLGRDSFEVRVCACPGRDRRTEEENFRKKEVLCPELPPGSAKRALPTCTSASPPQKKKPLDGEYFTLKIRGRKRFEMFRELNEALELKDAHATEESGDSRAHSSYLKTKKGQSTSRHKKTMVKKVGPDSD
notes: p53, mouse, full length; also called purified p53; Strep-tagged p53 full-length protein; source: Sf9 (Bac-to-Bac), purified (Strep-Tactin, heparin ion exchange, Superose 6 SEC); not shown: Strep-tag, N-terminal, kept
binding result: binds
